The source of these data is IntAct's records for PubMed 29433439.

To fix the notation:
B1: Phosphocholine transferase AnkX (Legionella pneumophila subsp. pneumophila), Q5ZXN6 (parent)
chain: MVKIMPNLPGLYFLQAYPSEEIWRLFVDGRFWSKENGWRGYESREPGCLNAALESLCSIALQVEKSGEEFELSVDLIKRIHKKCGKKVEELQEKNPGELRTDEPVSFGIPAGRASIKGIEEFLSLVFLTEGGAEFGPGKAGPFGPRFDKNYFKNLNPEQIPDLAKQIYFDMCKYGHSNTNHFYLAVMKNVDVYLEKITQSYNKEIKTAETLDEKLKIIVKHIRMYEVLHPFRDANGRTFVNNLLNILLMQQGLPPATFYEPNVFDLYSAEELVVVVKEAIFNTVEIIEQSKRKTPITLYGYHSSLEEQTKFRDMLDSPSYEKIKHMDFSDLNPEKLHLKTQKCLSSLNEQYPLHRGAIYLSDPGEIKLLLSNRNESQINQQIEQGAPPIYVGKTPAHLAVISGNMAMLDELIAKKADLSLQDYDGKTALHYAAECGNMQIMGKILKVVLSQEDAIKVLNIKDNHGKTAFHYAAEFGTPELISALTTTEVIQINEPDNSGSSAITLAYKNHKLKIFDELLNSGADISDELLDAIWARKDKETLGKIIAKNEKILLNKEAFRIAISLGSVSLVKKFLRAGVDIDIPLTKDKATPLMLSINSGNPKLVSYLLKKGANTRLTDTSGNSVLHYVFYSKAENREALANIITEKDKKLINQPNANGNPPLYNAVVVNDLKMATILLEMGARVDFEDRLGNNILHSAMRRCDLPIILDIVKKDSTLLHKRNSERRNPFHQALHEMHTFPSSKETEEIHFMNLSDLLLKEGVDLNKKDIKGKTILDIALSKQYFHLCVKLMKAGAHTNISSPSKFLKNSDANSILERPFKFKNDLKKELDNNPLIAMAQINDLYVQIKNNRIRTPTGYAPKEGVSFFKGKSNDAKAHDEVLSVLKELYDSKLTEMLGNLPGEGLEEIKRSQKFFDGELKLLIKNQDISRKVDKKSIQEAVGTSLKLKW
partner: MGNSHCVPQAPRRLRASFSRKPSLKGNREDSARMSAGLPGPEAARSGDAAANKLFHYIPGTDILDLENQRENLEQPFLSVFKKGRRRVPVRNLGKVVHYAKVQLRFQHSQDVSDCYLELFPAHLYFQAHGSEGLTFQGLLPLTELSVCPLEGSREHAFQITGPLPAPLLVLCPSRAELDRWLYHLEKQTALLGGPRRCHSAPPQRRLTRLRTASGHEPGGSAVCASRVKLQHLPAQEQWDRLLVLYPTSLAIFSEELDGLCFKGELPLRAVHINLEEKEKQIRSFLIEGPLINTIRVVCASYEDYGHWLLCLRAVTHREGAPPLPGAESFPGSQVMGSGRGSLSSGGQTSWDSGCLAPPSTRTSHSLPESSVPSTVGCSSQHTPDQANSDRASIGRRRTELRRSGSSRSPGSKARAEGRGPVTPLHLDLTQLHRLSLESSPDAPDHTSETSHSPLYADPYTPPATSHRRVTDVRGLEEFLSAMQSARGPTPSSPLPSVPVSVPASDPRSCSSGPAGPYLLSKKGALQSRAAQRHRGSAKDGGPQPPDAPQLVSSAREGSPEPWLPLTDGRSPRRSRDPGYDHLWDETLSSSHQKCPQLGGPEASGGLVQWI

The assay covers variants of B1. As to conditions: with pkhn1_human PLEKHN1, Q494U1.
Regarding H229A, the “effect of a mutation on the interaction” value is recorded as “decreasing interaction”.
